One assay deals with T1, TNFR2 on Kym-1 cells (UniProt P20333 23-461, limits assumed).
T1 sequence (looked up): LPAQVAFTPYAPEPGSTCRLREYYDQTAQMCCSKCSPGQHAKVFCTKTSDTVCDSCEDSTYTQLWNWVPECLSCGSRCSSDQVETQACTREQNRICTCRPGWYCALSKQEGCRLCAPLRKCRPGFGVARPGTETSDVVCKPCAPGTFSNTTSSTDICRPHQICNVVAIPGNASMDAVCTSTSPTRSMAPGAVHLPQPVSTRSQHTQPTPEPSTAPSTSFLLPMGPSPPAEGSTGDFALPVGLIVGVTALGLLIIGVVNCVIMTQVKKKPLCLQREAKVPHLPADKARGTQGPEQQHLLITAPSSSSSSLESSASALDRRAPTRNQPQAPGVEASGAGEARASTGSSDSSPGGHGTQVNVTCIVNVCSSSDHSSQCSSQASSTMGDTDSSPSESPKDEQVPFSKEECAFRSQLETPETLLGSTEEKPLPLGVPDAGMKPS
The assay is described as follows: cell-based or functional assay.

Assay [1] concerns the target T2, human TNFR2-Fc (etanercept) (human, UniProt P20333 23-257).
T2 construct: Commercial drug coated on ELISA plates (200 ng/well); also called immobilized TNF-R2; not shown: Fc part of etanercept
T2 sequence (looked up): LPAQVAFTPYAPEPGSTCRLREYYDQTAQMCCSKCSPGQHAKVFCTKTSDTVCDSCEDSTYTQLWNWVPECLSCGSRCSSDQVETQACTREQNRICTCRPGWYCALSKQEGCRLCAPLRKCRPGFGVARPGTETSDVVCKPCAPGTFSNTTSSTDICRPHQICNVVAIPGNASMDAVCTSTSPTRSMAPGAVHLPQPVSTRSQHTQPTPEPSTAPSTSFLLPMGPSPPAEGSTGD
The assay can be described thus: ELISA on coated etanercept. As to the method: The binding of scTNFR2 and the scTNFR2-Fc(Δab) proteins to human TNFR2-Fc (etanercept) was analyzed by ELISA. 96-well ELISA plates were coated with 200 ng/well etanercept in coating buffer (0.1 M sodium carbonate, pH 9.5) overnight at 4° C., blocked with 2% skim milk in PBS (MPBS) and washed with washing buffer PBST (PBS, 0.05 Tween 20). ScTNFR2 and scTNFR2-Fc(Δab) proteins were titrated in duplicates and incubated on the plates for 2 h at room temperature, followed by washing with PBST. Receptor-bound complexes were detected with mouse anti-huTNFα F6C5 (Novus, 1 μg/ml) and goat anti-mouse IgG(Fc)-HRP (Sigma-Aldrich, 1:10,000), followed by extensive washing with PBST each, before incubation with HRP substrate.
For orientation: ELISA stands for enzyme-linked immunosorbent assay.

Positions count from the first letter of the chain named.

B1: 6xHis-scTNFR2 143 (ligand)
chain: MCGSHHHHHHSGIPASDKPVAHVVANPQAEGQLQWLNRRANALLANGVELRDNQLVVPSEGLYLIYSQVLFKGQGCPSTHVLLTHTISRIAVSYQTKVNLLSAIKSPCQRETPEGAEAKPWYEPIYLGGVFQLEKGDRLSAEINRPDYLNFRESGQVYFGIIALGGGPSDKPVAHVVANPQAEGQLQWLNRRANALLANGVELRDNQLVVPSEGLYLIYSQVLFKGQGCPSTHVLLTHTISRIAVSYQTKVNLLSAIKSPCQRETPEGAEAKPWYEPIYLGGVFQLEKGDRLSAEINRPDYLNFRESGQVYFGIIALGGGPSDKPVAHVVANPQAEGQLQWLNRRANALLANGVELRDNQLVVPSEGLYLIYSQVLFKGQGCPSTHVLLTHTISRIAVSYQTKVNLLSAIKSPCQRETPEGAEAKPWYEPIYLGGVFQLEKGDRLSAEINRPDYLNFRESGQVYFGIIAL
notes: Expressed with Igκ leader and N-terminal 6xHis tag; also called variant 143
What is called EC50 is the concentration giving half of the maximal effect. The low end stands for higher potency in that assay, the high end for lower potency in that assay. Consider B1, for which the “EC50 of bioactivity on Kym-1 with 80M2 (cell death, crystal violet)” value (shortened to “EC50 of bioactivity on Kym-1 with 80M2”) with TNFR2 on Kym-1 cells was determined as 11.9 pM. This molecule showed an EC50 in assay [1] of 670 pM.

B2: 6xHis-scTNFR2 146 (ligand)
chain: MCGSHHHHHHSGIPASDKPVAHVVANPQAEGQLQWLNRRANALLANGVELRDNQLVVPSEGLYLIYSQVLFKGQGCPSTHVLLTHTISRIAVSYQTKVNLLSAIKSPCQRETPEGAEAKPWYEPIYLGGVFQLEKGDRLSAEINRPDYLNFRESGQVYFGIIALGGGTPSDKPVAHVVANPQAEGQLQWLNRRANALLANGVELRDNQLVVPSEGLYLIYSQVLFKGQGCPSTHVLLTHTISRIAVSYQTKVNLLSAIKSPCQRETPEGAEAKPWYEPIYLGGVFQLEKGDRLSAEINRPDYLNFRESGQVYFGIIALGGGTPSDKPVAHVVANPQAEGQLQWLNRRANALLANGVELRDNQLVVPSEGLYLIYSQVLFKGQGCPSTHVLLTHTISRIAVSYQTKVNLLSAIKSPCQRETPEGAEAKPWYEPIYLGGVFQLEKGDRLSAEINRPDYLNFRESGQVYFGIIAL
notes: Expressed with Igκ leader and N-terminal 6xHis tag; also called variant 146
Consider B2, for which the “EC50 of bioactivity on Kym-1 with 80M2” value in the assay with TNFR2 on Kym-1 cells was 6.55 pM. This molecule showed an EC50 in assay [1] of 710 pM.

B3: 6xHis-scTNFR2 147 (ligand)
chain: B2 chain with T168G, T322G
notes: Expressed with Igκ leader and N-terminal 6xHis tag; also called variant 147
As to B3, the “EC50 of bioactivity on Kym-1 with 80M2” value in the assay with TNFR2 on Kym-1 cells is 8.58 pM. In assay [1], this molecule showed an EC50 of 760 pM.

For the origin of these results see US20220267410A1 (UNIVERSITAT STUTTGART, published 2022).
